From PMC1636354 (Nucleic Acids Research, 2006) come the findings set out here.

Assay in all cases: pull-down
Data set [1] deals with the molecule itself.
The target in data set [2] is T1, human Rad54B protein (untagged, purified) (human, UniProt Q9Y620 1-910).
T1 sequence: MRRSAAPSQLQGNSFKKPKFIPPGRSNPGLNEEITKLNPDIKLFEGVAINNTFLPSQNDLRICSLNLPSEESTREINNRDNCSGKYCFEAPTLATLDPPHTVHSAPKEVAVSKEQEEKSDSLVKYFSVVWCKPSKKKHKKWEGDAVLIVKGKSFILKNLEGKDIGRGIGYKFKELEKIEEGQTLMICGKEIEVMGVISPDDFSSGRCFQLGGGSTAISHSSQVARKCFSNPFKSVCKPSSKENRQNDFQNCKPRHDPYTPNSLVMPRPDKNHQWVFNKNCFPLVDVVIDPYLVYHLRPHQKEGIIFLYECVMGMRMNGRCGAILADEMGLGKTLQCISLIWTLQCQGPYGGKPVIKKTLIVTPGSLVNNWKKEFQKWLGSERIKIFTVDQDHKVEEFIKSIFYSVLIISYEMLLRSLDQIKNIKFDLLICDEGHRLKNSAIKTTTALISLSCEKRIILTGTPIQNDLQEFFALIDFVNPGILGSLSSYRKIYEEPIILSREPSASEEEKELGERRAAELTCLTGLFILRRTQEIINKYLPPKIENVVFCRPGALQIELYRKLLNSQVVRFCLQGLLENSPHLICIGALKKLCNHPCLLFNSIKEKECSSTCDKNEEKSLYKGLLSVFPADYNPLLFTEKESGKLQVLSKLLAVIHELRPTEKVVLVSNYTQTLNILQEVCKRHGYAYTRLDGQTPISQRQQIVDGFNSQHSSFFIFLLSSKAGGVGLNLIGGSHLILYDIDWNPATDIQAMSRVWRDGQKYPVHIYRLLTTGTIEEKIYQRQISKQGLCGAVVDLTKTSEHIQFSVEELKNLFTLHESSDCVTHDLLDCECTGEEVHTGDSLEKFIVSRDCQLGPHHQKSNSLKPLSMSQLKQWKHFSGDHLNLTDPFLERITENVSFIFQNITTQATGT

Data set [3] has as its target T2, Dmc1 (human, UniProt Q14565 1-340).
T2 sequence: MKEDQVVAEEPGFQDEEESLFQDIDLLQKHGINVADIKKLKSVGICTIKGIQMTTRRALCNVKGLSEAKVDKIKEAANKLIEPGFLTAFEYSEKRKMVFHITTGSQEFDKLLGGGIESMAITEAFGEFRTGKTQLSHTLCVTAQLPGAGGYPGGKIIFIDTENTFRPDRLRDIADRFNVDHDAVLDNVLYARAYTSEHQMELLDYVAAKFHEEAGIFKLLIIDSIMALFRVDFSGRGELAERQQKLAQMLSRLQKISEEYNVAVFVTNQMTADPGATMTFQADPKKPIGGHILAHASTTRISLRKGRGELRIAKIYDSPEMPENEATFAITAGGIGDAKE

B1: human Dmc1 protein (purified) (natural protein)
chain: T2 sequence
Take B1: the binding result in data set [1] and in data set [2] was “binds” throughout.

B2: Dmc1 mutant lacking 81 amino acid residues from the N-terminus (Dmc1 82-340) (domain or fragment)
chain: EPGFLTAFEYSEKRKMVFHITTGSQEFDKLLGGGIESMAITEAFGEFRTGKTQLSHTLCVTAQLPGAGGYPGGKIIFIDTENTFRPDRLRDIADRFNVDHDAVLDNVLYARAYTSEHQMELLDYVAAKFHEEAGIFKLLIIDSIMALFRVDFSGRGELAERQQKLAQMLSRLQKISEEYNVAVFVTNQMTADPGATMTFQADPKKPIGGHILAHASTTRISLRKGRGELRIAKIYDSPEMPENEATFAITAGGIGDAKE
Consider B2, for which the binding result in data set [1] and in data set [2] was “binds” throughout.

B3: human Rad51 protein (natural protein)
chain: MAMQMQLEANADTSVEEESFGPQPISRLEQCGINANDVKKLEEAGFHTVEAVAYAPKKELINIKGISEAKADKILAEAAKLVPMGFTTATEFHQRRSEIIQITTGSKELDKLLQGGIETGSITEMFGEFRTGKTQICHTLAVTCQLPIDRGGGEGKAMYIDTEGTFRPERLLAVAERYGLSGSDVLDNVAYARAFNTDHQTQLLYQASAMMVESRYALLIVDSATALYRTDYSGRGELSARQMHLARFLRMLLRLADEFGVAVVITNQVVAQVDGAAMFAADPKKPIGGNIIAHASTTRLYLRKGRGETRICKIYDSPCLPEAEAMFAINADGVGDAKD
On to B3, for which the binding result in data set [2] is “binds”.

B4: SAT-120 (ssDNA)
DNA: ATTTCTTCATTTCATGCTAGACAGAAGAATTCTCAGTAACTTCTTTGTGCTGTGTGTATTCAACTCACAGAGTGGAACGTCCCTTTGCACAGAGCAGATTTGAAACACTCTTTTTGTAGT
Consider B4, for which the binding result in data set [3] was “binds”.
